Data on seven molecules can be found in paper PMC4051647, “Two Adjacent and Similar TetR Family Transcriptional Regulator Genes, SAV577 and SAV576, Co-Regulate Avermectin Production in Streptomyces avermitilis”.

For data set [1], the target named is T1, His6-SAV577 (Streptomyces avermitilis ATCC31267?) (UniProt Q82QD3).
T1 sequence: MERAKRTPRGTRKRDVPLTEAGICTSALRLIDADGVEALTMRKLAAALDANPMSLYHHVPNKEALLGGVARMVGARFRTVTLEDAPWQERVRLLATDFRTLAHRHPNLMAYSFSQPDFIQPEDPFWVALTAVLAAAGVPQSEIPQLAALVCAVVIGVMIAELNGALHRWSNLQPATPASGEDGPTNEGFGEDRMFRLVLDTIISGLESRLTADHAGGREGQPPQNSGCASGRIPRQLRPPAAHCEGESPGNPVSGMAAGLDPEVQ
Briefly: EMSA. The note with it: EMSA: Roche DIG Gel Shift kit binding buffer, 1 ug poly[d(I-C)] per 20 ul, 25 C 30 min, 5% native PAGE 0.5x TBE; footprinting: 20 mM HEPES pH 7.6, 10 mM ….

The target in data set [2] is T2, His6-SAV577 (UniProt Q82QD3 1-265).
T2 sequence: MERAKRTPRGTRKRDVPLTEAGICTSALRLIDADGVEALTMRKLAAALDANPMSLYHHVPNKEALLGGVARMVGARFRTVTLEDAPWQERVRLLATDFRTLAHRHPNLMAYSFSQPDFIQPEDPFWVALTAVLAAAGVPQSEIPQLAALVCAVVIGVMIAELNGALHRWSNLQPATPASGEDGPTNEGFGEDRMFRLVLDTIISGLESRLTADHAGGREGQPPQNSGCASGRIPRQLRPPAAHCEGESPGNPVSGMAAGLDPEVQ
Briefly: EMSA; 0.3 nM probe; EMSA: Roche DIG Gel Shift kit binding buffer, 1 ug poly[d(I-C)] per 20 ul, 25 C 30 min, 5% native PAGE 0.5x TBE; footprinting: 20 mM HEPES pH 7.6, 10 mM (NH4)2SO4, 1 mM DTT, 0.2% Tween-20, 30 mM KCl, 25 C binding. The settings on record: protein: recombinant; tags: N-terminal His6; chain copies: 2; label: DIG 3'-end; blunt. Background: A gel shift assay detects complexes by their altered migration in electrophoresis.

On to “ATATGCCCTGCCGAGGAGACCCTGGCGAACCCGCCTTGCCCGCTCTCGCGGACTGATACCGGCCTGATCGAGCGCGGCATGGAGACGTACGGGCGCCGCCGCGAGGCGGCACACGCGCCTGCTTCTCCGGCGCTGCCGTCAGTCGCCGACGCGCATGGGTGCAGACCCGACCTCCGCGATGCGTACTGGCGGGCAGGGGGATTGGCTGCTCACCGGGATGTAGCCGCGGCCGCCGTCGCGGATCGTGGGTGTCCTCC (double strand) [probe 4]”, for which the binding entry in data set [1] was “no binding”.

For “GAAACTCAATCGGCAGACCTGGGGTCGAGAAACAGGAACGTTTCGGCCCATCAGGGACGGCGTCGCTCACGCAGCGGGGTCGCATCAGGATCAGGCGCTGCCGAACGCTCTCCCGGCTGGAGGAGGCGAGGGGAGACCGGTCGCCGCCAGCCGGCGGCTCGACCGGGCCACCGGTGGGTGCGCCCCGGGGAGGACACCCACGATCCGCGACGGCGGCCGCGGCTACATCCCGGTGAGCAGCCAATCCCCCTGCCCGCCAGTACGCATCGCGGAGGT (double strand) [probe 3]”, in data set [1], the binding entry was “no binding”.

In the case of “GAAGGCATACAGCGTATGGAAACGGGGCGCTGCCGTACCGGCGCCCCGTCACACCGAATGGCGCCCTGCCCGCCTTTCCCCTTGGAGGAGCCAGCCAT (double strand) [probe 1]”, in data set [1], the binding result is “binds more weakly”.

Turning to “GCTCTCGGAATTGTTCGTTCCCTCGCACTACACGTTCGAGATCGGAACGTGAAGACCAGCACGCTCCAGCCCGTTCGGATGCCGTACGTAGTCCGCCATGGCCAAGGGAATGAGCCCCACTCAGGCAGCGCCCTCGTACTCGTCCACGACCAGATGCTTGGACAGCAGCGCCTGAACCGCGTCCGGCGGAAAGTATCAGTGGACGAACG (double strand) [probe 577p]”, the binding result in data set [1] is reported as “no binding”.

For “GGTATTCCATTCGGTGTTGCAGCACGCGACCCACTGCGCATCCCACTCGTGAATTGTGGACCGCCATCCGGGGCACGGATGTCTCCAGGAAGGAACTCCTTCACCCTCGCGAACACCACCTCAGAATCCCACGATCATCAGTTAATCATCAAAGTCAGCGACCTTGACACTACCCCGCCCACCAGGGCAAATTCATAACA (double strand) [probe 7]”, in data set [1], the binding entry was “no binding”.

B1: probe 6 (dsDNA)
DNA 1: AGTCGCCATACGCTGTACGGTACCAGCGCCCGCGGCACTGCGG
DNA 2: CCGCAGTGCCGCGGGCGCTGGTACCGTACAGCGTATGGCGACT
For the molecule B1, the binding result in data set [2] was “binds”.

B2: probe 2 (dsDNA)
DNA 1: CCCAGGTCTGCCGATTGAGTTTCCATACGTCGTATGGTACTAC
DNA 2: GTAGTACCATACGACGTATGGAAACTCAATCGGCAGACCTGGG
Consider B2, for which the binding result in data set [2] was “binds”.
